Source: PMC3160652 (The EMBO Journal, 2011)

Molecular target: T1, GST–Ubp3 (UBP3 cloned into pGEX4T, PEN253) (S. cerevisiae, UniProt Q01477 1-912)
T1 sequence (looked up): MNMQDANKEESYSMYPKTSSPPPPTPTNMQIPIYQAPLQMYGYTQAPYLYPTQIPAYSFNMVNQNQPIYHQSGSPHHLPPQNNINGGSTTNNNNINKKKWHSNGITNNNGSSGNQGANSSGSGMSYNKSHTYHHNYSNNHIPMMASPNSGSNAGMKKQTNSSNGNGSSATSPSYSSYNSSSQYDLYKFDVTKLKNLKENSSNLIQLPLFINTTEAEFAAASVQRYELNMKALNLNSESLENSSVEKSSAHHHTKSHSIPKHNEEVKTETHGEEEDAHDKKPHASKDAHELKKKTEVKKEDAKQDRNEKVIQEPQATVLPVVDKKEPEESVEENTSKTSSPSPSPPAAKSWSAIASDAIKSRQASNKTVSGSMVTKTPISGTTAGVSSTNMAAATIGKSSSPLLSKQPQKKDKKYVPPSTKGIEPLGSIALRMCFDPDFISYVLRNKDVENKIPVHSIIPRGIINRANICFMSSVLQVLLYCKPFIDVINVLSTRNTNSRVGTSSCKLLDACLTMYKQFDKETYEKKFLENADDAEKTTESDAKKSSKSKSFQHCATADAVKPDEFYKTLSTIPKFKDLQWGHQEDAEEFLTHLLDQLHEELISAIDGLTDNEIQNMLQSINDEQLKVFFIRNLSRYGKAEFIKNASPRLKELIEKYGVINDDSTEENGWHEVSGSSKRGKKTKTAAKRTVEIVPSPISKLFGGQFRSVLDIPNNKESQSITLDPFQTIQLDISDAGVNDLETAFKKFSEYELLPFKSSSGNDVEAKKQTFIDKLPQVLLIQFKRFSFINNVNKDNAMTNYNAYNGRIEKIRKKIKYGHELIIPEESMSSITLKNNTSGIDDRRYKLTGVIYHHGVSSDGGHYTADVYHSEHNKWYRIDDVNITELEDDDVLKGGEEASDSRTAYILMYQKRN
Assay: pull-down

B1: His-tagged Hog1 (enzyme, S. cerevisiae, UniProt P32485 1-435, looked up)
chain: MTTNEEFIRTQIFGTVFEITNRYNDLNPVGMGAFGLVCSATDTLTSQPVAIKKIMKPFSTAVLAKRTYRELKLLKHLRHENLICLQDIFLSPLEDIYFVTELQGTDLHRLLQTRPLEKQFVQYFLYQILRGLKYVHSAGVIHRDLKPSNILINENCDLKICDFGLARIQDPQMTGYVSTRYYRAPEIMLTWQKYDVEVDIWSAGCIFAEMIEGKPLFPGKDHVHQFSIITDLLGSPPKDVINTICSENTLKFVTSLPHRDPIPFSERFKTVEPDAVDLLEKMLVFDPKKRITAADALAHPYSAPYHDPTDEPVADAKFDWHFNDADLPVDTWRVMMYSEILDFHKIGGSDGQIDISATFDDQVAAATAAAAQAQAQAQAQVQLNMAAHSHNGAGTTGNDHSDIAGGNKVSDHVAANDTITDYGNQAIQYANEFQQ
B1: binds.
